Source: the supplement of paper PMC7877785
± gives the uncertainty stated by the source.

Assay: self-splicing fitness, log relative to wild type (ln ratio); higher = more splicing; Tetrahymena group I intron in knt gene, E. coli kanamycin selection, DiMSum; sequences stand for … in CUCUCU…GGAGGGAAAAGUUAUCAGGCAUGCACCUGGUAGCUAGUCUUUAAACCAAUAGAUUGCAUCGGUUUAAAAGGCAAGACCGUCAAAUUGCGGGAAAGGGGUCAACAGCCGUUCAGUACCAAGUCUCAGGGGAAACUUUGAGAUGGCCUUGCAAAGGGUAUGGUAAUAAGCUGACGGACAUGGUCCUAACCACGCAGCCAAGUCCUAAGUCAACAGAUCUUCUGUUGAUAUGGAUGCAGUUCACAGACUAAAUGUCGGUCGGGGAAGAUGUAUUCUUCUCAUAAGAUAUAGUCGGACCUCUCCUUAAUGGGAGCUAGCGGAUGAAGUGAUGCAACACUGGAGCCGCUGGGAACUAAUUUGUAUGCGAAAGUAUAUUGAUUAGUUUUGGAGUACUCGUGGUCG
How it was run: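 The eight P1ex-region nucleotides of an intron in the knt kanamycin-resistance gene on pET-22b(+) were all randomised and the library put into E. coli BL21(DE3). Six replicate transformations were grown overnight at 37°C or 30°C on LB agar with or without 25 μg/mL kanamycin, together with 100 μg/mL carbenicillin, 50 μM IPTG and 0.2% rhamnose. Colonies were pooled and amplicon-sequenced on an Illumina HiSeq 2500. Fitness from DiMSum is the error-weighted combination of wild-type-normalised replicate fold changes, kanamycin over none.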

| Sequence | self-splicing fitness (ln) (30 °C) | self-splicing fitness (ln) (37 °C) |
| --- | --- | --- |
| UGAUAGCAAUAUUACGGGCA | -0.911 ± 0.075 | 0.244 ± 0.12 |
| GCCCAGCAAUAUUACGGAGU | -2.57 ± 0.084 | -0.683 ± 0.085 |
| CGGAAGCAAUAUUACGUACA | -0.615 ± 0.13 | -0.219 ± 0.15 |
| CAACAGCAAUAUUACGGAUG | -2.53 ± 0.074 | -0.732 ± 0.068 |
| UUACAGCAAUAUUACGGAAA | -1.42 ± 0.14 | -0.561 ± 0.14 |
| UGGUAGCAAUAUUACGGAUA | -1.92 ± 0.24 | -2.72 ± 0.27 |
| UUUCAGCAAUAUUACGGAAG | -1.69 ± 0.12 | -0.536 ± 0.19 |
| GUUCAGCAAUAUUACGGACA | -1.59 ± 0.18 | -1.02 ± 0.16 |
| AUUCAGCAAUAUUACGGCGA | -0.392 ± 0.078 | -0.501 ± 0.084 |
| GUUCAGCAAUAUUACGUUAU | -0.292 ± 0.077 | -0.207 ± 0.099 |
| CUGAAGCAAUAUUACGGACU | -2.85 ± 0.22 | -0.495 ± 0.17 |
| CCGUAGCAAUAUUACGUACU |  | -2.03 ± 0.32 |
| ACGAAGCAAUAUUACGAGUA | -3.49 ± 0.21 | -2.73 ± 0.17 |
| CAGUAGCAAUAUUACGGCUA | -1.11 ± 0.15 | -1.21 ± 0.16 |
| CAGCAGCAAUAUUACGUUAG | -1.17 ± 0.063 | -0.421 ± 0.078 |
| GGUCAGCAAUAUUACGGUGC | -0.28 ± 0.075 | 0.535 ± 0.11 |
| CACAAGCAAUAUUACGACCU | -1.71 ± 0.19 | -2.1 ± 0.2 |
| AGCUAGCAAUAUUACGACGG | -1.66 ± 0.23 | -1.43 ± 0.42 |
| AUGUAGCAAUAUUACGGAGG | -3.57 ± 0.23 | -2.57 ± 0.23 |
| AUCUAGCAAUAUUACGUACU | -0.329 ± 0.082 | -0.199 ± 0.11 |
| AAGAAGCAAUAUUACGGUCC | -1.1 ± 0.14 | 0.249 ± 0.16 |
| AUUUAGCAAUAUUACGGUUC |  | -3.23 ± 0.43 |
| UAAGAGCAAUAUUACGGGAU | -3.55 ± 0.31 | -2.99 ± 0.28 |
| ACUAAGCAAUAUUACGUAGU | -3.04 ± 0.14 | -3.45 ± 0.21 |
| GUAUAGCAAUAUUACGGCAU | -0.587 ± 0.081 | -0.661 ± 0.1 |
| ACCAAGCAAUAUUACGAGAC | -3.68 ± 0.18 | -2.86 ± 0.21 |

| Sequence | self-splicing fitness (ln) (30 °C) | self-splicing fitness (ln) (37 °C) |
| --- | --- | --- |
| CUGGAGCAAUAUUACGGAAG | -3.48 ± 0.41 | -1.45 ± 0.28 |
| GUGAAGCAAUAUUACGGAAC | 0.76 ± 0.34 |  |
| AAUGAGCAAUAUUACGAGUA | -3.91 ± 0.25 | -2.54 ± 0.27 |
| ACUUAGCAAUAUUACGAAUC | -3.59 ± 0.23 | -0.386 ± 0.23 |
| GUUUAGCAAUAUUACGCUGA | -3.66 ± 0.33 | -1.6 ± 0.23 |
| CCCAAGCAAUAUUACGUUUA | -3.62 ± 0.14 | -3.04 ± 0.18 |
| AUACAGCAAUAUUACGACAU | 0.131 ± 0.011 | 0.288 ± 0.032 |
| CGGUAGCAAUAUUACGGCAC | -2.11 ± 0.26 | -1.99 ± 0.36 |
| AACGAGCAAUAUUACGUACC | -2.91 ± 0.23 | -1.9 ± 0.2 |
| GCUCAGCAAUAUUACGAGCC | -3.98 ± 0.31 | -3.64 ± 0.39 |
| AUAUAGCAAUAUUACGGGAU | -2.27 ± 0.16 | -0.966 ± 0.16 |
| GGGUAGCAAUAUUACGUGCU | -0.698 ± 0.15 | -0.399 ± 0.19 |
| GCCCAGCAAUAUUACGGUGC | -3.13 ± 0.14 | -2.52 ± 0.18 |
| UGGGAGCAAUAUUACGCGCG | -1.51 ± 0.3 | -0.924 ± 0.35 |
| CCAAAGCAAUAUUACGGUUU | -3.21 ± 0.12 | -2.34 ± 0.15 |
| CCUCAGCAAUAUUACGUAGC | -3.9 ± 0.19 | -2.73 ± 0.28 |
| AGAGAGCAAUAUUACGUUAC | -2.67 ± 0.22 | -2.19 ± 0.42 |
| CGCUAGCAAUAUUACGCGGG | -4.55 ± 0.26 | -2.08 ± 0.16 |
| GAAAAGCAAUAUUACGUUGG | -3.55 ± 0.19 | -2.16 ± 0.16 |
| GUUGAGCAAUAUUACGGUAA | -2.51 ± 0.27 | -2.49 ± 0.35 |
| ACUCAGCAAUAUUACGCUUU | -1.85 ± 0.095 | -0.42 ± 0.11 |
| AGAGAGCAAUAUUACGCGUA | -2.46 ± 0.27 | -2.08 ± 0.48 |
| UCCCAGCAAUAUUACGACGG | -2.95 ± 0.15 | -2.15 ± 0.14 |
| GACUAGCAAUAUUACGAAAU | -1.07 ± 0.16 | 0.651 ± 0.26 |
| UGACAGCAAUAUUACGCCAG | -1.56 ± 0.12 | -0.793 ± 0.14 |
| GAUAAGCAAUAUUACGGAGU | -2.46 ± 0.16 | -0.942 ± 0.14 |

| Sequence | self-splicing fitness (ln) (30 °C) | self-splicing fitness (ln) (37 °C) |
| --- | --- | --- |
| CAUUAGCAAUAUUACGGAGC | -2.94 ± 0.4 | -2.04 ± 0.23 |
| UAGAAGCAAUAUUACGCGGU | -4.94 ± 0.42 | -2.37 ± 0.24 |
| ACUGAGCAAUAUUACGCCAA | -3.45 ± 0.29 | -2.74 ± 0.22 |
| AUGUAGCAAUAUUACGAAAG | -2.59 ± 0.23 | -2.2 ± 0.26 |
| GCAGAGCAAUAUUACGCAGA | -2.78 ± 0.42 | -2.22 ± 0.34 |
| CACGAGCAAUAUUACGUUUC | -3.42 ± 0.17 | -2.42 ± 0.22 |
| UGCAAGCAAUAUUACGGCCA | -0.252 ± 0.08 | 1.07 ± 0.14 |
| GUGAAGCAAUAUUACGAAUA | -1.91 ± 0.1 | -0.485 ± 0.23 |
| CAGAAGCAAUAUUACGAGUC | -3.79 ± 0.48 | -2.16 ± 0.32 |
| UAAUAGCAAUAUUACGUGGG | -2.91 ± 0.3 | -3.08 ± 0.27 |
| GAACAGCAAUAUUACGACUC | 0.0151 ± 0.071 | -0.517 ± 0.082 |
| UGAGAGCAAUAUUACGGCAU | -2.88 ± 0.23 | -2.85 ± 0.33 |
| ACCUAGCAAUAUUACGCUCA | -1.71 ± 0.14 | -0.169 ± 0.17 |
| GCCAAGCAAUAUUACGUAAU | -1.11 ± 0.062 | -0.183 ± 0.074 |
| UCCGAGCAAUAUUACGCGUC | -3.74 ± 0.37 | -1.53 ± 0.26 |
| UCAUAGCAAUAUUACGGACU | -2.63 ± 0.18 | -3.18 ± 0.43 |
| AGGGAGCAAUAUUACGUAGG |  | -2.14 ± 0.47 |
| CAUGAGCAAUAUUACGAAGC |  | -0.241 ± 0.49 |
| GACCAGCAAUAUUACGCUUA | -0.722 ± 0.053 | 0.0868 ± 0.064 |
| GCAAAGCAAUAUUACGAAGA | -1.88 ± 0.18 | -2.45 ± 0.23 |
| UCACAGCAAUAUUACGGACG | -1.22 ± 0.073 | -0.222 ± 0.091 |
| CCAAAGCAAUAUUACGACAA | -2.42 ± 0.27 | -2.54 ± 0.28 |
| AAUUAGCAAUAUUACGGUGA | -1.7 ± 0.084 | -0.534 ± 0.099 |
| UCACAGCAAUAUUACGGACU | -2.99 ± 0.15 | -2.16 ± 0.14 |
